The values below come from article PMC6459835, “The RNA binding activity of the first identified trypanosome protein with Z-DNA-binding domains”.

Series [1] has as its target T1, RBP7910 WT (Trypanosoma brucei) (UniProt Q38AH3).
T1 sequence: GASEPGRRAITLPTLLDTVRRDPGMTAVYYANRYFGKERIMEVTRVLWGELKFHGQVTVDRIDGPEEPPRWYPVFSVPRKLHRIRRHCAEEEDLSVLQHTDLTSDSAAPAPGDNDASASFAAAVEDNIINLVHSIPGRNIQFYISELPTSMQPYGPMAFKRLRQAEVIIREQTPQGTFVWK
Kind of series: competition. The settings on record: RBB50: 20 mM Tris-HCl pH 7.6, 50 mM KCl, 5 mM MgCl2, 100 mg/mL BSA (so in the source), 10% glycerol, 1 mM DTT, plus 100 mM KCl and 20 U RNasin, 20 ul, 30 min, RT ….

For series [2], the target named is T2, RBP7910 WT (Trypanosoma brucei, UniProt Q38AH3 9-189).
T2 sequence: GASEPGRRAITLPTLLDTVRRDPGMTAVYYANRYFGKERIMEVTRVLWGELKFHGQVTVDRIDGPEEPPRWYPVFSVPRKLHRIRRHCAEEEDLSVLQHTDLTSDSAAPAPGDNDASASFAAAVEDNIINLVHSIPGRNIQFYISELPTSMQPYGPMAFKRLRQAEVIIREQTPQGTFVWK
Kind of series: EMSA. To be noted: RBB50: 20 mM Tris-HCl pH 7.6, 50 mM KCl, 5 mM MgCl2, 100 mg/mL BSA (so in the source), 10% glycerol, 1 mM DTT, plus 100 mM KCl and 20 U RNasin, 20 ul, 30 min, RT …. For orientation: A gel shift assay detects complexes by their altered migration in electrophoresis.

For series [3], the target named is T2, RBP7910 WT. Kind of series: competition. To be noted: RBB50: 20 mM Tris-HCl pH 7.6, 50 mM KCl, 5 mM MgCl2, 100 mg/mL BSA (so in the source), 10% glycerol, 1 mM DTT, plus 100 mM KCl and 20 U RNasin; 20 ul, 30 min, RT ….
The target in series [4] is T2, RBP7910 WT. As to the kind of experiment: competition; vs labeled gA6[14]; RBB50: 20 mM Tris-HCl pH 7.6, 50 mM KCl, 5 mM MgCl2, 100 mg/mL BSA (so in the source), 10% glycerol, 1 mM DTT, plus 100 mM KCl and 20 U RNasin; 20 ul, 30 min, RT; native 10% TBE gel at 4 C. To be noted: protein: recombinant; tags: N-terminal 6xHis (pET30-a); label: unlabeled; one predicted stem-loop, 3' oligo(U) tail.

Series [5] addresses T2, RBP7910 WT. As to the kind of experiment: EMSA; 95% CI 1.25-1.97; RBB50: 20 mM Tris-HCl pH 7.6, 50 mM KCl, 5 mM MgCl2, 100 mg/mL BSA (so in the source), 10% glycerol, 1 mM DTT, plus 100 mM KCl and 20 U RNasin; 20 ul, 30 min, RT; native 10% TBE gel at 4 C. To be noted: protein: recombinant; tags: N-terminal 6xHis (pET30-a); label: 32P (UTP body or 3' pCp).
Series [6] has as its target T2, RBP7910 WT. Kind of series: EMSA; 1 nM labeled RNA, protein titration; specificity confirmed with unlabeled poly AU; RBB50: 20 mM Tris-HCl pH 7.6, 50 mM KCl, 5 mM MgCl2, 100 mg/mL BSA (so in the source), 10% glycerol, 1 mM DTT, plus 100 mM KCl and 20 U RNasin; 20 ul, 30 min, RT; native 10% TBE gel at 4 C. The settings on record: protein: recombinant; tags: N-terminal 6xHis (pET30-a); label: 32P.

Regarding “GGGGGGACUGACAUUAAAAGAAAUGUGAAUUUUUCUCCGCUUUU [42-mer CYb gRNA (gCYb[558] USD-2A-42nt), no U-tail]”, the binding signal in series [1] (scale: fold less efficient competitor than natural gCYb) was 10. For “GGGAUUAAAAGACAAUGUGAAUUUCUUAAGGUAAUAAAGGGAAUAAUUUUUUUUUUUUUUUU [natural CYb gRNA (gCYb[558]) with U-tail]”, in series [1], the binding signal (% reduction of bound labeled gA6[14]) came to 50.

With gA6[14] (delta16G) gRNA with U-tail, the Kd (usually the equilibrium constant for the complex coming apart) with RBP7910 WT [2] (95% CI 0.18-0.27) was 0.21 nM. Turning to CYb pre-edited mRNA, in the series with RBP7910 WT [3], the binding signal (% reduction of bound labeled gA6[14]) was 50. Further, the Kd in the series with RBP7910 WT [2] (95% CI 2.09-3.66) was found to be 2.78 nM. Consider poly U RNA, for which, in the series with RBP7910 WT [3], the binding signal (% reduction of bound labeled poly AU) stood at 50.

B1: uridylated non-guide RNA (49 nt) (structured_RNA)
RNA: GGGUACCAGAUACAUACUAAGGAAUUCGAUAUCACUAUUUUUUUUUUUUUU
Take B1: the binding signal in the series with RBP7910 WT [4] was 10 fold less efficient competitor than gA6[14].

B2: CYb edited mRNA (ssRNA)
RNA: GGGAAAUAUGUUUUUUCGUGUUAGAUUUUUGUUAUUUUUUUUAUUAUUUAGAAAUUUAUGUUGUCUUUUUA
B2: the dissociation constant Kd with RBP7910 WT [5] was 1.57 ± 0.06 nM.

B3: poly AU RNA (ssRNA)
RNA: GGGAUUCUUUUCGAGUCUCUUUUAUUUAUUUAUUUAUUUAUUUUUUCUCUCUUAUU
For B3, the binding result in the series with RBP7910 WT [6] is on record as “binds”.
